Assay results as given in US20020193568.
Like-named read-outs stand apart in the source and are kept apart here.

Columns and labels:
[1] = target: LacI Pro320Ala Pro320Ala (Escherichia coli) (UniProt P03023); settings: wild-type inducer responsivity
[2] = target: LacI Gln60Gly (Escherichia coli) (UniProt P03023)
[3] = target: lac repressor (LacI) wild-type (Escherichia coli) (UniProt P03023); settings: no inducer; assay method not stated; cited from earlier work

Substance lac operator DNA (LacO) has a binding signal (fold higher affinity than wild-type) [1] of 10.

In the case of lac operator O1 (LacO), the Kd ([2]; 1 mM IPTG, described as wild-type affinity under these conditions) is given as over 100 nM, the Kd ([2]; no inducer, assay method not stated, refers to Falcon and Matthews 1999, cited from earlier work) is given as 0.004 nM and the Kd [3] is given as 0.012 nM.
